According to publication PMC9892613, “Thermodynamic analysis of an entropically driven, high-affinity nanobody-HIV p24 interaction” (Biophysical Journal, 2022):

Biological target: T1, HIV-1 capsid protein p24 (His-p24) (HIV-1 group M subtype B, NY5/NL4-3 …, UniProt P12493)
T1 construct: capsid protein p24 of HIV-1, the cut product of the Gag polyprotein; amplified from the template pWISP98-85 (NIH ARP); also called HIV-1 p24; p24 antigen; source: E. coli BL21-Star(DE3)pLysS, pET3a-His-p24, purified in-house; not shown: His6-Cys, N-terminal, kept
Assay: BLI; in the same nanobody storage buffer (Fig. S5)
Details: both partners purified

B1: nanobody 48G11 (59H10 F93D) (VHH)
VHH: DVQLQESGGGLVQAGGSLRLSCAASGSISRFNAMGWWRQAPGKEREFVARIVKGFDPVLADSVKGRFTISIDSAENTLALQMNRLKPEDTAVYYCDAALDTAYWGQGTQVTVSS
notes: as the chain of m2 (59H10, PDB 5O2U chain B) with F93D; made by site-directed mutagenesis; Artificial variant of 59H10 with one changed residue; also called 48G11 (F93D)
  binding result: no binding
